B1: Flagellar brake protein YcgR (Escherichia coli (strain K12)), P76010 (parent)
chain: MSHYHEQFLKQNPLAVLGVLRDLHKAAIPLRLSWNGGQLISKLLAITPDKLVLDFGSQAEDNIAVLKAQHITITAETQGAKVEFTVEQLQQSEYLQLPAFITVPPPTLWFVQRRRYFRISAPLHPPYFCQTKLADNSTLRFRLYDLSLGGMGALLETAKPAELQEGMRFAQIEVNMGQWGVFHFDAQLISISERKVIDGKNETITTPRLSFRFLNVSPTVERQLQRIIFSLEREAREKADKVRD
partner: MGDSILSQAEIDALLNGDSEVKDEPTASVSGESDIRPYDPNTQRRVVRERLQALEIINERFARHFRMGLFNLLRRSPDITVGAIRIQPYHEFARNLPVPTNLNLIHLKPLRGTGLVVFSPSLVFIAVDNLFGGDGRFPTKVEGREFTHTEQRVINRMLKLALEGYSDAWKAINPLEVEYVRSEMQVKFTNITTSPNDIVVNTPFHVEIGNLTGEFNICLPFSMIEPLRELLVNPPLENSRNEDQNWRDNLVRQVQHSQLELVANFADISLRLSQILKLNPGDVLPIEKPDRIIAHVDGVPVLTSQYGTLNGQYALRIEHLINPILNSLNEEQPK
B2: Flagellar motor switch protein FliG (Escherichia coli (strain K12)), P0ABZ1 (parent)
chain: MSNLTGTDKSVILLMTIGEDRAAEVFKHLSQREVQTLSAAMANVTQISNKQLTDVLAEFEQEAEQFAALNINANDYLRSVLVKALGEERAASLLEDILETRDTASGIETLNFMEPQSAADLIRDEHPQIIATILVHLKRAQAADILALFDERLRHDVMLRIATFGGVQPAALAELTEVLNGLLDGQNLKRSKMGGVRTAAEIINLMKTQQEEAVITAVREFDGELAQKIIDEMFLFENLVDVDDRSIQRLLQEVDSESLLIALKGAEQPLREKFLRNMSQRAADILRDDLANRGPVRLSQVENEQKAILLIVRRLAETGEMVIGSGEDTYV
partner: B1 chain
B3: Flagellar brake protein YcgR (Escherichia coli (strain K12)), P76010 (parent)
chain: B1 chain
partner: B2 chain
B4: Flagellar motor switch protein FliM (Escherichia coli (strain K12)), P06974 (parent)
chain: B1 partner
partner: B1 chain

Variants of: B1
Conditions: with flim_ecoli fliM
I227W was tested, and the “effect of a mutation on the interaction” value was “disrupting interaction”.
With Q223P the “effect of a mutation on the interaction” value was “disrupting interaction”.

Variants of: B2
Conditions: with ycgr_ecoli ycgR
P295W was tested, and the “effect of a mutation on the interaction” value was “decreasing interaction”.
In the case of Q252W, the “effect of a mutation on the interaction” value is reported as “decreasing interaction”.
In the case of N292W, the “effect of a mutation on the interaction” value is reported as “decreasing interaction”.

Variants of: B3
Conditions: with flig_ecoli fliG
With N62W the “effect of a mutation on the interaction” value was “decreasing interaction”.
In the case of K81D, the “effect of a mutation on the interaction” value is reported as “decreasing interaction”.

Variants of: B4
Conditions: with ycgr_ecoli ycgR
For L160E, the “effect of a mutation on the interaction” value was “disrupting interaction”.
With D167R the “effect of a mutation on the interaction” value was “decreasing interaction”.
E176R was tested, and the “effect of a mutation on the interaction” value was “decreasing interaction”.
With R156E the “effect of a mutation on the interaction” value was “disrupting interaction”.
N155E was tested, and the “effect of a mutation on the interaction” value was “decreasing interaction”.
With V153D the “effect of a mutation on the interaction” value was “decreasing interaction”.
